# Test: yeast display, Sf9 membrane polyspecificity reagent, FACS + sequencing; frameworks hold sequencing errors
# Procedure, shortened: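 A nanobody's polyreactivity label depends on the gate it was sorted from. Yeast display cells were stained with 10% biotinylated, detergent-solubilized Sf9 membrane reagent for 1 hour at 4 °C, enriched on streptavidin microbeads and sorted by FACS. The low and high (top ~1%) gates were set on anti-HA fluorescence for expression and streptavidin fluorescence for reagent binding.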
row,Sequence,polyreactivity (PSR sort gate)
1,QVQLVESAGGLVQAGGRLRVSCAASGFTFTLYAMGWYRQEPGKERELVAAINRSGGRTYYADSVKGRFTISRDNAKNTVYLQKNSLKPEDTAVYYCNKYPWPNYYDGEYDYWGQGTQVTVSS,high polyreactivity
2,QVQLVESAGGLVQAGGSLRIICAASGRIFSVNSMGGYRQAPGKERELDATIRTDGTTNYADSVKGRFTISRDNAKNTVYLQMNSLQPGDPAVYYCNARIPYSWRYGYWGQGTQVTVSS,high polyreactivity
3,QVQLVESAGGLVQAGGSLRISCAASGRTFFKYAMGWYSQAPGKERELVAAITGRGGSTYADSVKGRFTISRDNAKNTVYLQINSLKPEDTSVFYCAKVYQRGAQYYYYKYDYWGQGTQVTVSS,high polyreactivity
4,QVQLVESAGGLVQAGGSLRLICAASGGTFVGYAMGWYRQAPGKERELVAAISRRGGSTYYADSVKGRFTISRDNAKNTVYLQMNSLKPEDTAVYYCAKSEHRSVPQYDYWGQGTQVTVSS,high polyreactivity
5,QVQLVESAGGLVQAGGSLRLSCAASASIFYVYSMGWSRQAPGKEREFVAAISWRGGSTYYADSVKGRFTISRDNAKNTVYLQMISLKPEDTAVFYCNGRRLGYRSGHPGYYWGQGTQVTVSS,high polyreactivity
6,QVQLVESAGGLVQAGGSLRLSCAASGFTFGENALGWYRQAPGKERELVAAIRYSGGSTYYADSVKGRFTLSRDNAKNTVYLQLNSLKAEDTAVYYCNADTYALGAAVIPGDEYWGQGTQVTVSS,low polyreactivity
7,QVQLVESAGGLVQAGGSLRLSCAASGFTFTKYAMGWYRQAPRKESELVAAISSSGYSTYYADSVKGRFTISRDNAKNTVYLQMNSLKPEDSAVYYCAARGYYSSGVDYWGQGTQVTVSS,high polyreactivity
8,QVQLVESAGGLVQAGGSLRLSCAASGFTFTYYVMGWYRQAPGKERELVAAISSGGSTYYADSVKGRFTISRDNAKNTVYLQMNSLKPEDTAVYYCAKGSGYYYRYGYWGQGTQVTVSS,high polyreactivity
9,QVQLVESAGGLVQAGGSLRLSCAASGGIFGINAMGWYRQAPGKERELVAAINLSGGRTYYADSVKGRFTISRDNAKNTVYLQMNSLKPEDTAVYYCAAFYGYSLYGHYEYWGQGTQVTVSS,high polyreactivity
10,QVQLVESAGGLVQAGGSLRLSCAASGIIFDTNAMGCYRQAPGKERELVASISKRGGSTYYADSVKGRFTISRDNAKNTVYLQMNSLKPEDTAVYYCNALRRRQYHDDYWGQGTQVTVSS,high polyreactivity
11,QVQLVESAGGLVQAGGSLRLSCAASGIIFIYYTMGWYRQAPGKERELVAVITTSGDGTYYADSVKGRFTISRDNAKNTVYFQMNSLKPEDTAVYYCAASYSTWVSSRNDYWGQGTQVTVSS,low polyreactivity
12,QVQLVESAGGLVQAGGSLRLSCAASGIIFRYYAMGWYRQAPGKERELVARITSRGGTYYADSVKGRFTISRDNAKNNVYLQMNSLKPEDTAVYYCAASYLLTHGYAYNYWGQGTQVTVSS,high polyreactivity
13,QVQLVESAGGLVQAGGSLRLSCAASGIISRWYAMGWYRQAPGKERELVAAITRGGNTYYADSVKGRFTISRDNAKNTVYLQMNSLKPEDTAVYYCAARTPSRYLYFEYDYWGQGTQVTVSS,low polyreactivity
14,QVQLVESAGGLVQAGGSLRLSCAASGITLSYNAMGWYRQAPGKERELVAAISARGGSTYYADSVKGRFTISRDNAKNTVYLQMNSLKPEVTAVYYCAAPRGWRQNKYDYWGQGTEVTVSS,high polyreactivity
15,QVQLVESAGGLVQAGGSLRLSCAASGLILHINTMGWYRQAPGKERELVAAISWSGDSTYYADSVKGRFTISRDNAKNTVYLQMNSLKPDDTAVYYCTTDYGHTYLYGYDYWGQGTQVTVSS,high polyreactivity
16,QVQLVESAGGLVQAGGSLRLSCAASGLTFVPNAMGWYRQAPGKEREFVAAISNNGGRTYYADSVKGRFTISRDNAKNTVYLEMNSLKPEDTAVYYCAKFLSPGERHSYDYWGQGTQVTVSS,high polyreactivity

row,Sequence,polyreactivity (PSR sort gate)
1,QVQLVESAGGLVQAGGSLRLSCAASGNTFYPYAMGWYRQAPGKERELVAAITSVGRTYYADSVKGRFTITRDNAKNTVYLQMNSLKPEDTAVYYCAAVVYYRGYTYNYWGQGTQVTVSS,high polyreactivity
2,QVQLVESAGGLVQAGGSLRLSCAASGRIFRYNAMGWYRPAPGKERELVAAISSIGGRTYYADTVKGRFTISRDNAKNTVYLQMYSLKPEDTAVYSCNARGYLSRSHMHEYDYWGQGTQVTVSS,high polyreactivity
3,QVQLVESAGGLVQAGGSLRLSCAASGRIFSIYAMGWSRQAPGKERELVAAIRRGGSTSYADSVKGRFTISRDNAKNTVYLQMNSLKPEDTAVYYCAARLRYLGYDFWGQGTQVTVSS,high polyreactivity
4,QVQLVESAGGLVQAGGSLRLSCAASGRIFVRYAKGRYREAPGKVRELVAAISSSGSSTYYADSVKRRFTISRDNASNTVYLQMNSLKPEDTAVYYCNAVPSVRWRYDYWGQGTQVTVSS,high polyreactivity
5,QVQLVESAGGLVQAGGSLRLSCAASGRNFVDYAMGWYRQAPGKERELVAAITQRGGSTYYADSVKGRFTISRDNAKNTVYLQMNSLKPEDTAVYYCAAVTRFYTKYYWGQGTQVTVSS,high polyreactivity
6,QVQLVESAGGLVQAGGSLRLSCAASGRTIRWYTMGWYRQAPGKERELVAGISSSGGSTYYADSVKGRFTISRDTAKNTVYLQMNSLKPEDTAVYYCNVVTWYYVFRPWEYDYWGQGTQVTVSS,low polyreactivity
7,QVQLVESAGGLVQAGGSLRLSCAASGSIFVYNTMGWYRQAPGKERELVASITYSGGSTYYADSVKGRFTISRDNAKNTVYLQMNSLKPEDTAVYYCNTDDVALQWDWYPYPYDYWGQGTQVTVSS,low polyreactivity
8,QVQLVESAGGLVQAGGSLRLSCAASGSNFGDYPLGWYRQAPGKERELVAAISVRGGSTYYADSVKGRFTISRDNAKITVYLQMKSLKPEDTAVYYCNKDLYRYPGYDYWGHGTQVTVSS,high polyreactivity
9,QVQLVESAGGLVQAGGSLRLSCAASGSTFLIYALGCYRHAPGKERELVAAITVSGGDTYYADSVKGRFTISRDNAKNTVYLQMNSLKPEDTAVYYCAAEGGNDYSSVDAGISYDYWGQGTKVTVSS,low polyreactivity
10,QVQLVESAGGLVQAGGSLRLSCAASGSTFWLYAMGWYRQAPGKERELVAAISYTGTSTYYADSVKGRFTISRDNAKNTVYLQMNSLKPEDTAVYDCAADFVGLVTGYDYSWGQGTQVTVSS,low polyreactivity
11,QVQLVESAGGLVQAGGSLRLSCAASGSTIYGCVMGWYRHAPGKERELVAGITRGGSTNYADSVKGRFTISRDNAKNTVYLQMNSLKPEDTAVYYCATRYFSRYYYWGQGTQVTVSS,high polyreactivity
12,QVQLVESAGGLVQAGGSLRLSCAASGTFYYYAMGWYRQAPGKERELVAAISNGDSTTYADSVKGRFTISRDNAKNTVYLQMNSLNPEDTAVYYCAAYRYTPRTSRGYYYWGQGTQVTVSS,low polyreactivity
13,QVQLVESAGGLVQAGGSLRLSCAASGYTISYANAMGWYRQAPGKERELVASISSTGGRTYYADSVKGRFTISRDNAKNTVYLQMNSLKPEDTAVYYCASRYWRYGYWGQGTQVTVSS,high polyreactivity
14,QVQLVESAGGLVQAGGSLRLSCAASVSIFFIYARGWYRQAPGKERELVATISRSDVSTFYGDSVKGRFTISRDNAKNTVYLQMNSLKPEDTAVYYCAAEWSPPEPIQLYGYWGQGTQVTVSS,high polyreactivity
15,QVQLVESAGGLVQAGGSLRLSCAASVSTIAPNAMGWYRQAPGKERELVASIRRGGSTHYADSVKGSFTISRDNAKNTVYLQMNSLKPEDTAVYYCAKDVWRHYLNLYDYWGQGTQVTLSS,low polyreactivity
16,QVQLVESAGGLVQAGGSLRLSCDASGRIFQRNAMGWYRQEPGKERQFVAAISSRGGTTYYADSVKGRFTISRDNAKNTVYLQMNSLKQEDNAVYYCAAGYVHLYYFHEYYWGQGTQVTVSS,high polyreactivity
